In patent US20140072613A1 (published 2014):

T1: PDK1(h) (human, UniProt O15530 1-556, limits assumed)
T1 sequence (looked up): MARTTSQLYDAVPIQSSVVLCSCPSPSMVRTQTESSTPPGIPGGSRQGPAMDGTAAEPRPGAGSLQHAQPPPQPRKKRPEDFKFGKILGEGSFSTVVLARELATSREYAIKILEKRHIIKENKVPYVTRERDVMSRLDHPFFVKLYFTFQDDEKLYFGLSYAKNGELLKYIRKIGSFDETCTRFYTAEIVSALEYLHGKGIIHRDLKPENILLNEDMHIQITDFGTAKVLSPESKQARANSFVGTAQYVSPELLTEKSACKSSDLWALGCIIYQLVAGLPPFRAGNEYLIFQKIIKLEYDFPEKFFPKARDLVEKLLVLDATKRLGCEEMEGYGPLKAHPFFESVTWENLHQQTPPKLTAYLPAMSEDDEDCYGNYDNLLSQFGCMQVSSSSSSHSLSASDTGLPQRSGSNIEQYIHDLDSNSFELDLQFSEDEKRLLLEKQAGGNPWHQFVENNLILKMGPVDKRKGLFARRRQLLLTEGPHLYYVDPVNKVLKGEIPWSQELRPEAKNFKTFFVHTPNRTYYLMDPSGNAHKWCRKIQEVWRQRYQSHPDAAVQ

T2: DYRK2(h) (human, UniProt Q92630 1-601, limits assumed)
T2 sequence (looked up): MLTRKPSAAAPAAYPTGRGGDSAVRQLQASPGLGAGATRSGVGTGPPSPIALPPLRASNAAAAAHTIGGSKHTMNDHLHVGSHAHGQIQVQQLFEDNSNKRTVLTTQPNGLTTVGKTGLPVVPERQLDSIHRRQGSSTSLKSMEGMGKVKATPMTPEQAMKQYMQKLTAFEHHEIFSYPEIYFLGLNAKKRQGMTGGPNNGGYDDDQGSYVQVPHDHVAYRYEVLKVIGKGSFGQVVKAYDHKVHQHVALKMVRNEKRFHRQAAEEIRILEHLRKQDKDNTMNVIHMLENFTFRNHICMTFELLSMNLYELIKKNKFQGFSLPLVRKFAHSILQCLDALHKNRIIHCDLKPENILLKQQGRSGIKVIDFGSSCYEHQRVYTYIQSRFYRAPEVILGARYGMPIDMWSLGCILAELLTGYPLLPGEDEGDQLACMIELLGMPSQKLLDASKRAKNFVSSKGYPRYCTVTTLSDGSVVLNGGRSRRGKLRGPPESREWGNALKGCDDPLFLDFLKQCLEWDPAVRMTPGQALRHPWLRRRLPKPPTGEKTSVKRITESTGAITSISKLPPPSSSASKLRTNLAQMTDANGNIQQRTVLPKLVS

T3: TAK1(h) (human, UniProt O43318 1-303, limits assumed)
T3 sequence (looked up): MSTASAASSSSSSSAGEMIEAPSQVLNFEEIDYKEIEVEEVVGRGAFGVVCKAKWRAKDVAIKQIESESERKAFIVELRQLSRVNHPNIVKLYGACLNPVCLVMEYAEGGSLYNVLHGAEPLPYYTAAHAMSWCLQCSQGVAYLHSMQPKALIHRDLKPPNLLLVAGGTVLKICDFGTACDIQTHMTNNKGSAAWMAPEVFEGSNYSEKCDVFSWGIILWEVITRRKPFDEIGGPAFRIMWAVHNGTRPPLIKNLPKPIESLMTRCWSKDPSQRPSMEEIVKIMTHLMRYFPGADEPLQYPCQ

T4: ALK4(h) (human, UniProt P36896 150-505, limits assumed)
T4 sequence (looked up): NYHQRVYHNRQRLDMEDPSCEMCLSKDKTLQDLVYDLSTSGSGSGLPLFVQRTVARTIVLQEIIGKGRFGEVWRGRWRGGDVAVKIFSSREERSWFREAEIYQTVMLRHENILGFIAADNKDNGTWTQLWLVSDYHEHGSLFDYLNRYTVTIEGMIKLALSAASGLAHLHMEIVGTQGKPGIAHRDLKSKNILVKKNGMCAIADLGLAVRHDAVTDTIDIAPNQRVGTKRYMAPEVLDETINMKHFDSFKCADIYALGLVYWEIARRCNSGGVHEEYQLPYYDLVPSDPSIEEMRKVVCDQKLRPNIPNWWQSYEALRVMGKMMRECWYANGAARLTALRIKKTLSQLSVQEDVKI


Key:
Assay in all cases: cell-based or functional assay
BTK(R28H)(h) = BTK(R28H)(h) (human, UniProt Q06187 1-659)
BTK(R28H)(h), sequence (Q06187 whole entry R28H): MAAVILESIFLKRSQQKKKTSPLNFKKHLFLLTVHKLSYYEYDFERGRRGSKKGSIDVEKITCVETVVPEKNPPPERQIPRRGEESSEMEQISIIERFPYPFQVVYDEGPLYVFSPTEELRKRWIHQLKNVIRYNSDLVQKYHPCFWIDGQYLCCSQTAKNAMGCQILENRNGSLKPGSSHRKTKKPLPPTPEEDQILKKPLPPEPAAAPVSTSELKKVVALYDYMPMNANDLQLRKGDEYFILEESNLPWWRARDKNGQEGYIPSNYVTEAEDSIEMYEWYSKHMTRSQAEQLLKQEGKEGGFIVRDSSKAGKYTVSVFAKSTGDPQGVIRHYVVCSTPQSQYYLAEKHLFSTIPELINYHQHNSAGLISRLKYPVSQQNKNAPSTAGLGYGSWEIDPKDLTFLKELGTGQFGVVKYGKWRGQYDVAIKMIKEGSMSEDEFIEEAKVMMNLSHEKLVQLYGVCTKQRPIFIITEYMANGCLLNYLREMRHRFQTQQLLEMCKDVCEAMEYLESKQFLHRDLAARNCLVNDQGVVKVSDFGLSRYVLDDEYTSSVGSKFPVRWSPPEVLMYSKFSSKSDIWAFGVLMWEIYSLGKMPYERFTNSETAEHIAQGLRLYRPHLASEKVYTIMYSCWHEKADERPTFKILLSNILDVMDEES

PDK1(h) = biological target: T1, PDK1(h)
PKCθ(h) = PKCθ(h) (human, UniProt Q04759 1-706)
PKCθ(h), sequence (Q04759 whole entry): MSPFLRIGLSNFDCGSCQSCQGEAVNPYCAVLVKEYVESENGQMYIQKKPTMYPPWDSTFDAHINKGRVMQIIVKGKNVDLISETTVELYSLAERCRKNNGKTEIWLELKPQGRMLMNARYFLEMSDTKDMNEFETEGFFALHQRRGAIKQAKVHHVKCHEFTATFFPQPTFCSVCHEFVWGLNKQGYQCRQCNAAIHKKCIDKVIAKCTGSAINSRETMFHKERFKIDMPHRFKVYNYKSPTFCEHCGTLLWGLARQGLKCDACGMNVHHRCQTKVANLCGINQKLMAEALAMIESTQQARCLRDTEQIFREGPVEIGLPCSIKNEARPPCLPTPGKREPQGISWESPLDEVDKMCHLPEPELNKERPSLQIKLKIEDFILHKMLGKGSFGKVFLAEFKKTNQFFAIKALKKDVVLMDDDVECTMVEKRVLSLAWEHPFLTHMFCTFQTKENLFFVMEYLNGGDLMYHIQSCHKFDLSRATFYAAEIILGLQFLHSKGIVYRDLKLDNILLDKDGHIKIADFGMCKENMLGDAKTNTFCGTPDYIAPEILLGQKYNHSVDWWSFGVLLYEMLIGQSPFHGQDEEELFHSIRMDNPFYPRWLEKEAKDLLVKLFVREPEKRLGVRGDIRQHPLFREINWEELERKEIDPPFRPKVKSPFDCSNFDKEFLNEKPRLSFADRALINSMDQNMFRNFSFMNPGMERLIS

SAPK2b(h) = SAPK2b(h) (human, UniProt Q15759 1-364)
SAPK2b(h), sequence (Q15759 whole entry): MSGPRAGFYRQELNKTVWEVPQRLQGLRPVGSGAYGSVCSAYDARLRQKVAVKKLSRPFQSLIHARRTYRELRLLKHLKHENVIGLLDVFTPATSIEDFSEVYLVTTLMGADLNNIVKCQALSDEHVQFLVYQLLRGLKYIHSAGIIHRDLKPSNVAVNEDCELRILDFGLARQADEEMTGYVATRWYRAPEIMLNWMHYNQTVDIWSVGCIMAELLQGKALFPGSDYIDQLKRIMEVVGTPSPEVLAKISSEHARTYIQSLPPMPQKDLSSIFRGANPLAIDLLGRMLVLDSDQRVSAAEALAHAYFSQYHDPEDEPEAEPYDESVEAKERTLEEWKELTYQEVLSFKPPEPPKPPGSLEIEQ

LOK(h) = LOK(h) (human, UniProt O94804 1-348, limits assumed)
LOK(h), sequence (O94804 1-348 limits assumed): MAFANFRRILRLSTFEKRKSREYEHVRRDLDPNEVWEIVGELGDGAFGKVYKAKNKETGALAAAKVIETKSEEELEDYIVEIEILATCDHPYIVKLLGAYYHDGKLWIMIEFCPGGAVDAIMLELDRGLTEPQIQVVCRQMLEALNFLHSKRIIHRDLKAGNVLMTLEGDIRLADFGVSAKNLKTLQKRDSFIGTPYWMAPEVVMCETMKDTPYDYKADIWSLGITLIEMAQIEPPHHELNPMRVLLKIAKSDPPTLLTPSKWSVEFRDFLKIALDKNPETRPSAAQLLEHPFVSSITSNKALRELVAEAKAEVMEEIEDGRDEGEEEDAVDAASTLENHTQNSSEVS

WNK3(h) = WNK3(h) (human, UniProt Q9BYP7 1-434, limits assumed)
WNK3(h), sequence (Q9BYP7 1-434 limits assumed): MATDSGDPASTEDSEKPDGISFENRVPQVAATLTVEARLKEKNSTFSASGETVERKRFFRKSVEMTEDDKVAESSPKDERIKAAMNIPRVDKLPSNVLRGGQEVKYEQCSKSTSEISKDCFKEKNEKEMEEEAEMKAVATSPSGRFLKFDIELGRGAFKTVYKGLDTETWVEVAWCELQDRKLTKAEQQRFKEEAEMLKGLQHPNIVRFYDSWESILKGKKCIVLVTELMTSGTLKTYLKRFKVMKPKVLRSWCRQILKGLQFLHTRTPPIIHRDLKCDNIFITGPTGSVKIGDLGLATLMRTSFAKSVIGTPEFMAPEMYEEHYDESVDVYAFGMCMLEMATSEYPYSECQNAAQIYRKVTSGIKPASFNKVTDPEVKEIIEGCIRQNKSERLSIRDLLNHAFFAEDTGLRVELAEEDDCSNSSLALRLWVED

DYRK2(h) = biological target: T2, DYRK2(h)
TAK1(h) = biological target: T3, TAK1(h)
Yes(h) = Yes(h) (human, UniProt P07947 1-543)
Yes(h), sequence (P07947 whole entry): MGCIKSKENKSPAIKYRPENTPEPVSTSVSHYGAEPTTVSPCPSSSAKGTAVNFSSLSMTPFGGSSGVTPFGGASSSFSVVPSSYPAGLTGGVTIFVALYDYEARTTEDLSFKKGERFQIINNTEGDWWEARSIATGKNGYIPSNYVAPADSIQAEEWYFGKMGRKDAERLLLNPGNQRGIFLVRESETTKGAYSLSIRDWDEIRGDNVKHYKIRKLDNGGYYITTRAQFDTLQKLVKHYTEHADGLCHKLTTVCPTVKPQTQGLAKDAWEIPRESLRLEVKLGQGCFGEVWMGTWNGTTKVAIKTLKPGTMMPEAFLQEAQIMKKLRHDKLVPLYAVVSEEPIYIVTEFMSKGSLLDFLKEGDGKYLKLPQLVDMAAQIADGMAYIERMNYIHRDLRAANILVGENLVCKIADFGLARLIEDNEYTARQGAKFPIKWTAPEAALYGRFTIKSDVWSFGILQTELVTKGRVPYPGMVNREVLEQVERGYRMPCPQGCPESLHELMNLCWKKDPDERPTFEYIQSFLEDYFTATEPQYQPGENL

ALK4(h) = biological target: T4, ALK4(h)
PTK5(h) = PTK5(h) (human, UniProt P42685 1-505, limits assumed)
PTK5(h), sequence (P42685 whole entry): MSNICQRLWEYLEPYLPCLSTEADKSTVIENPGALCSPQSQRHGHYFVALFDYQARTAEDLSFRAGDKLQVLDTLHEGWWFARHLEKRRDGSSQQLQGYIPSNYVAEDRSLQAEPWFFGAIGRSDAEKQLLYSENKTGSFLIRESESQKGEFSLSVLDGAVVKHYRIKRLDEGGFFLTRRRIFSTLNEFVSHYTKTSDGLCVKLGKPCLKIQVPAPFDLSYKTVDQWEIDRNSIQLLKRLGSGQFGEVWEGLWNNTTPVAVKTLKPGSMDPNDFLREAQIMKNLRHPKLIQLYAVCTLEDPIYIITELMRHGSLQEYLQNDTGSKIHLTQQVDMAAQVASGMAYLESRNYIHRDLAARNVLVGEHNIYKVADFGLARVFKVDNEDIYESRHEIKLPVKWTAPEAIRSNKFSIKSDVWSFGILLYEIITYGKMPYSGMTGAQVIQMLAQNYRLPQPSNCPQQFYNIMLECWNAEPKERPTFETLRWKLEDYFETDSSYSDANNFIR

ROCK-II(h) = ROCK-II(h) (human, UniProt O75116 11-552, limits assumed)
ROCK-II(h), sequence (O75116 11-552 limits assumed): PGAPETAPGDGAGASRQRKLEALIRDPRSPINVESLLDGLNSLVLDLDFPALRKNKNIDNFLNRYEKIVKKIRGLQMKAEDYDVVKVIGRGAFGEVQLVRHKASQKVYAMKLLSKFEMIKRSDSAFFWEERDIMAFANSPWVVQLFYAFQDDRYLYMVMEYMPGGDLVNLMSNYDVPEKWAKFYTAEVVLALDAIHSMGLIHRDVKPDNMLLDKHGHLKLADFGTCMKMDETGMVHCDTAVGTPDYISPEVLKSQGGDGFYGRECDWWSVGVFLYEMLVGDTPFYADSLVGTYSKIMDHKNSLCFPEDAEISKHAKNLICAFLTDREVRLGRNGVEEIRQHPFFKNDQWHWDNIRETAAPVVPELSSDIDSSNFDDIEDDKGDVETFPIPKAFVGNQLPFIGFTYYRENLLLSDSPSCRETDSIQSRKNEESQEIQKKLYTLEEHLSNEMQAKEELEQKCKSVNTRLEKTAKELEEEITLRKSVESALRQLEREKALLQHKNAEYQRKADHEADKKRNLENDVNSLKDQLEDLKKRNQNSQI

LIMK1(h) = LIMK1(h) (human, UniProt P53667 285-638, limits assumed)
LIMK1(h), sequence (P53667 285-638 limits assumed): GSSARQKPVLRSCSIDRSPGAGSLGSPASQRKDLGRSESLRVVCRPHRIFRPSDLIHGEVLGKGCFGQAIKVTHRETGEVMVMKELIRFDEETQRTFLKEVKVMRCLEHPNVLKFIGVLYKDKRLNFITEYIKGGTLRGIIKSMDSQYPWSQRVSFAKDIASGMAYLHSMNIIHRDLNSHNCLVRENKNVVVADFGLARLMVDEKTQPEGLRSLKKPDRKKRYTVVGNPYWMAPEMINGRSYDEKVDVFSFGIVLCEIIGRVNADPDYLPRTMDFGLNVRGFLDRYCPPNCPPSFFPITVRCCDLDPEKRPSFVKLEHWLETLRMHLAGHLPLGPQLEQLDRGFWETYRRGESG

CSK(h) = CSK(h) (human, UniProt P41240 1-450)
CSK(h), sequence (P41240 whole entry): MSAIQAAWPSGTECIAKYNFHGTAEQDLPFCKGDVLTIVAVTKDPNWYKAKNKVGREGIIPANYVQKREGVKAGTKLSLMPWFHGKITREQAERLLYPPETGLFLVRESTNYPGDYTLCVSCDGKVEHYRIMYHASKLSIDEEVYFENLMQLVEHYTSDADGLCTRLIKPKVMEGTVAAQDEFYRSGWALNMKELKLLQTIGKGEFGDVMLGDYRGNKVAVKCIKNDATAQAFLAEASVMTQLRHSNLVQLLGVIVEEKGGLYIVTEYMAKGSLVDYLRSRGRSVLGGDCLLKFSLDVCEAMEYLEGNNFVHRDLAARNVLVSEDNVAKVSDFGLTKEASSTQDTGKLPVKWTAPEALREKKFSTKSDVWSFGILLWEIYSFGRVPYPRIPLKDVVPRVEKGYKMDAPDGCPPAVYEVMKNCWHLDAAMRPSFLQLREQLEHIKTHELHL

PKGδ(h) = PKGδ(h) (human)

| Binder | % activity, 100 µM (BTK(R28H)(h)) [%] | % activity, 100 µM (PDK1(h)) [%] | % activity, 100 µM (PKCθ(h)) [%] | % activity, 100 µM (SAPK2b(h)) [%] | % activity, 100 µM (LOK(h)) [%] | % activity, 100 µM (WNK3(h)) [%] | % activity, 100 µM (DYRK2(h)) [%] | % activity, 100 µM (TAK1(h)) [%] | % activity, 100 µM (Yes(h)) [%] | % activity, 100 µM (ALK4(h)) [%] | % activity, 100 µM (PTK5(h)) [%] | % activity, 100 µM (ROCK-II(h)) [%] | % activity, 100 µM (LIMK1(h)) [%] | % activity, 100 µM (CSK(h)) [%] | % activity, 100 µM (PKGδ(h)) [%] |
| --- | --- | --- | --- | --- | --- | --- | --- | --- | --- | --- | --- | --- | --- | --- | --- |
| FAKLAARLYRKALARQLGVAA [MMI-0300] | 74 | 135 | 88 | 81 | 37 | 77 | 155 | 122 | 67 | 140 | 132 | 74 | 88 | 49 | 101 |
| KAFAKLAARLYRKALARQLGVAA [MMI-0400] | 24 | 159 | 76 | 82 | 18 | 74 | 195 | 177 | 14 | 130 | 129 | 77 | 92 | 16 | 90 |
